What follows are molecules tested on HAB1 (assay: PYR1 mutant-HAB1 yeast two-hybrid assay under different ABA concentrations (X-gal staining)). Settings: lowest (+)-ABA concentration giving detectable X-gal staining; S. cerevisiae Y190 with pACT-HAB1; 30° C., 48 hours.
Type: cell-based
Excerpt: The affinity of a receptor for a target ligand is typically determined by non-covalent interactions between ligand-binding residues and the ligand. Mutations in such residues can have negative, positive or neutral effects on the strength of the receptor—ligand interaction. The affinity of a receptor-ligand interaction is intrinsically correlated with the concentration of ligand required to elicit biological effects, with high affinity ligands requiring lower concentrations relative to low affinity ligands. A mutant receptor with increased affinity for a ligand can in some cases elicit greater biological effect relative to a wild type receptor, when both are activated under identical conditions by the same concentration of activating ligand. Thus, mutations that make a receptor hypersensitive to a ligand can be useful for engineering organisms that elicit stronger responses to the ligand relative to wild type. […] Based on these considerations, we set out to systematically establish specific ABA receptor mutations that increase ABA responsiveness. This was done by testing a collection of PYR1 variants with all possible single amino acid substitution mutations in ligand binding residues. Thus we conducted site-saturated mutagenesis of ABA-contacting residues, which we define as those that are within 5A or ABA or ABA-contacting water residues in available X-ray coordinates. This collection of mutants was constructed previously, as described in PCT Application No. PCT/US2012/043121 and Mosquna et al., Proc Natl Acad Sci USA 108: 20838-20843 (2011). This collection of mutants was made by mutagenizing a previously described pBD GAL-PYR1 template (Park, S.-Y., et al. Science 324, 1068-1071 ([…])). In response to ABA, this particular plasmid encodes a fusion protein that binds to a co-expressed GAL4 activation domain-HAB1 fusion protein, encoded by the plasmid pACT-HAB1. This binding reconstitutes a functional GAL4 transcriptional activator and subsequent transcription of a β-galactosidase reporter gene, which in turn enables colorimetric based detection of agonist promoted receptor-PP2C interaction when lysed cells are exposed to the substrate X-gal. The mutant clones were individually transformed into S. cerevisiae strain Y190 containing pACT-HAB1. Yeast transformants were selected for the presence of plasmids on synthetic dextrose (SD) agar plates lacking Leu and Trp (SD-LT) and examined for PP2C interactions by using X-gal staining to monitor β-gal reporter gene expression levels. Individual clones were arrayed into 96 well plates and then spotted onto SD-LT lawn (i.e. one-well) plates containing 0, 0.5 or 5.0 μM (+)-ABA. Each assay plate contained 95 mutant clones and one wild type PYR1 positive control clone. The spotted cells were cultured at 30° C. for 48 hours after which they were lysed by chloroform and stained with an X-gal solution, as previously described (Park, S.-Y., et al. (2009) Science 324, 1068-1071). […] After this initial screening exercise, all positives clones were retested on plates containing […] and stained for galactosidase activity as described above. Mutant clones showing detectable staining on 0.5 μM (+)-ABA or lower were scored as hypersensitive mutants. FIG. 1 depicts results of PYR1 mutant-HAB1 interactions as assayed in a yeast two-hybrid assay under different ABA concentrations, with darker spots indicating increased interaction.

Molecule	Minimal conc. For ABA response [µM]
I110S: PYR1 mutant I110S, SEQ ID NO:129 (protein, synthetic Arabidopsis PYR1 mutant I110S) MPSELTPEERSELKNSIAEFHTYQLDPGSCSSLHAQRIHAPPELVWSIVRRFDKPQTYKHFIKSCSVEQNFEMRVGCTRDVIVISGLPANTSTERLDILDDERRVTGFSSIGGEHRLTNYKSVTTVHRFEKENRIWTVVLESYVVDMPEGNSEDDTRMFADTVVKLNLQKLATVAEAMARNSGDGSGSQVT	0.5
E141N: PYR1 mutant E141N, SEQ ID NO:134 (protein, synthetic Arabidopsis PYR1 mutant E141N) MPSELTPEERSELKNSIAEFHTYQLDPGSCSSLHAQRIHAPPELVWSIVRRFDKPQTYKHFIKSCSVEQNFEMRVGCTRDVIVISGLPANTSTERLDILDDERRVTGFSIIGGEHRLTNYKSVTTVHRFEKENRIWTVVLNSYVVDMPEGNSEDDTRMFADTVVKLNLQKLATVAEAMARNSGDGSGSQVT	0.5
F61L: PYR1 mutant F61L, SEQ ID NO:124 (protein, synthetic Arabidopsis PYR1 mutant F61L) MPSELTPEERSELKNSIAEFHTYQLDPGSCSSLHAQRIHAPPELVWSIVRRFDKPQTYKHLIKSCSVEQNFEMRVGCTRDVIVISGLPANTSTERLDILDDERRVTGFSIIGGEHRLTNYKSVTTVHRFEKENRIWTVVLESYVVDMPEGNSEDDTRMFADTVVKLNLQKLATVAEAMARNSGDGSGSQVT	0.25
V81I: PYR1 mutant V81I, SEQ ID NO:126 (protein, synthetic Arabidopsis PYR1 mutant V81I) MPSELTPEERSELKNSIAEFHTYQLDPGSCSSLHAQRIHAPPELVWSIVRRFDKPQTYKHFIKSCSVEQNFEMRVGCTRDIIVISGLPANTSTERLDILDDERRVTGFSIIGGEHRLTNYKSVTTVHRFEKENRIWTVVLESYVVDMPEGNSEDDTRMFADTVVKLNLQKLATVAEAMARNSGDGSGSQVT	0.25
E141C: PYR1 mutant E141C, SEQ ID NO:130 (protein, synthetic Arabidopsis PYR1 mutant E141C) MPSELTPEERSELKNSIAEFHTYQLDPGSCSSLHAQRIHAPPELVWSIVRRFDKPQTYKHFIKSCSVEQNFEMRVGCTRDVIVISGLPANTSTERLDILDDERRVTGFSIIGGEHRLTNYKSVTTVHRFEKENRIWTVVLCSYVVDMPEGNSEDDTRMFADTVVKLNLQKLATVAEAMARNSGDGSGSQVT	0.5
E141V: PYR1 mutant E141V, SEQ ID NO:136 (protein, synthetic Arabidopsis PYR1 mutant E141V) MPSELTPEERSELKNSIAEFHTYQLDPGSCSSLHAQRIHAPPELVWSIVRRFDKPQTYKHFIKSCSVEQNFEMRVGCTRDVIVISGLPANTSTERLDILDDERRVTGFSIIGGEHRLTNYKSVTTVHRFEKENRIWTVVLVSYVVDMPEGNSEDDTRMFADTVVKLNLQKLATVAEAMARNSGDGSGSQVT	0.5
F61M: PYR1 mutant F61M, SEQ ID NO:125 (protein, synthetic Arabidopsis PYR1 mutant F61M) MPSELTPEERSELKNSIAEFHTYQLDPGSCSSLHAQRIHAPPELVWSIVRRFDKPQTYKHMIKSCSVEQNFEMRVGCTRDVIVISGLPANTSTERLDILDDERRVTGFSIIGGEHRLTNYKSVTTVHRFEKENRIWTVVLESYVVDMPEGNSEDDTRMFADTVVKLNLQKLATVAEAMARNSGDGSGSQVT	0.25
E141I: PYR1 mutant E141I, SEQ ID NO:131 (protein, synthetic Arabidopsis PYR1 mutant E141I) MPSELTPEERSELKNSIAEFHTYQLDPGSCSSLHAQRIHAPPELVWSIVRRFDKPQTYKHFIKSCSVEQNFEMRVGCTRDVIVISGLPANTSTERLDILDDERRVTGFSIIGGEHRLTNYKSVTTVHRFEKENRIWTVVLISYVVDMPEGNSEDDTRMFADTVVKLNLQKLATVAEAMARNSGDGSGSQVT	0.25
E141W: PYR1 mutant E141W, SEQ ID NO:137 (protein, synthetic Arabidopsis PYR1 mutant E141W) MPSELTPEERSELKNSIAEFHTYQLDPGSCSSLHAQRIHAPPELVWSIVRRFDKPQTYKHFIKSCSVEQNFEMRVGCTRDVIVISGLPANTSTERLDILDDERRVTGFSIIGGEHRLTNYKSVTTVHRFEKENRIWTVVLWSYVVDMPEGNSEDDTRMFADTVVKLNLQKLATVAEAMARNSGDGSGSQVT	0.5
A160I: PYR1 mutant A160I, SEQ ID NO:140 (protein, synthetic Arabidopsis PYR1 mutant A160I) MPSELTPEERSELKNSIAEFHTYQLDPGSCSSLHAQRIHAPPELVWSIVRRFDKPQTYKHFIKSCSVEQNFEMRVGCTRDVIVISGLPANTSTERLDILDDERRVTGFSIIGGEHRLTNYKSVTTVHRFEKENRIWTVVLESYVVDMPEGNSEDDTRMFIDTVVKLNLQKLATVAEAMARNSGDGSGSQVT	0.25
E141Y: PYR1 mutant E141Y, SEQ ID NO:138 (protein, synthetic Arabidopsis PYR1 mutant E141Y) MPSELTPEERSELKNSIAEFHTYQLDPGSCSSLHAQRIHAPPELVWSIVRRFDKPQTYKHFIKSCSVEQNFEMRVGCTRDVIVISGLPANTSTERLDILDDERRVTGFSIIGGEHRLTNYKSVTTVHRFEKENRIWTVVLYSYVVDMPEGNSEDDTRMFADTVVKLNLQKLATVAEAMARNSGDGSGSQVT	0.25
E141M: PYR1 mutant E141M, SEQ ID NO:133 (protein, synthetic Arabidopsis PYR1 mutant E141M) MPSELTPEERSELKNSIAEFHTYQLDPGSCSSLHAQRIHAPPELVWSIVRRFDKPQTYKHFIKSCSVEQNFEMRVGCTRDVIVISGLPANTSTERLDILDDERRVTGFSIIGGEHRLTNYKSVTTVHRFEKENRIWTVVLMSYVVDMPEGNSEDDTRMFADTVVKLNLQKLATVAEAMARNSGDGSGSQVT	0.25
E141T: PYR1 mutant E141T, SEQ ID NO:135 (protein, synthetic Arabidopsis PYR1 mutant E141T) MPSELTPEERSELKNSIAEFHTYQLDPGSCSSLHAQRIHAPPELVWSIVRRFDKPQTYKHFIKSCSVEQNFEMRVGCTRDVIVISGLPANTSTERLDILDDERRVTGFSIIGGEHRLTNYKSVTTVHRFEKENRIWTVVLTSYVVDMPEGNSEDDTRMFADTVVKLNLQKLATVAEAMARNSGDGSGSQVT	0.5
E141L: PYR1 mutant E141L, SEQ ID NO:132 (protein, synthetic Arabidopsis PYR1 mutant E141L) MPSELTPEERSELKNSIAEFHTYQLDPGSCSSLHAQRIHAPPELVWSIVRRFDKPQTYKHFIKSCSVEQNFEMRVGCTRDVIVISGLPANTSTERLDILDDERRVTGFSIIGGEHRLTNYKSVTTVHRFEKENRIWTVVLLSYVVDMPEGNSEDDTRMFADTVVKLNLQKLATVAEAMARNSGDGSGSQVT	0.25
A160C: PYR1 mutant A160C, SEQ ID NO:139 (protein, synthetic Arabidopsis PYR1 mutant A160C) MPSELTPEERSELKNSIAEFHTYQLDPGSCSSLHAQRIHAPPELVWSIVRRFDKPQTYKHFIKSCSVEQNFEMRVGCTRDVIVISGLPANTSTERLDILDDERRVTGFSIIGGEHRLTNYKSVTTVHRFEKENRIWTVVLESYVVDMPEGNSEDDTRMFCDTVVKLNLQKLATVAEAMARNSGDGSGSQVT	0.25
